This note sets out measurements from the Immune Epitope Database (IEDB).

Among the targets are HLA-A*02:06; HLA-A*31:01; HLA-A*68:01; HLA-A*11:01; HLA-A*33:01; HLA-A*03:01.
Common to all, as to assay: IEDB peptide-MHC binding, purified MHC/competitive/radioactivity; filed as Kd, often an IC50 or EC50 that approximates it; ≥ and ≤ were set here for values at or beyond the usual limits of such assays
For the next assay, the target named is HLA-A*02:03. The conditions noted are these: source organism: Dengue virus 4 Philippines/H241/1956.
Where [1] appears, read: source organism: SARS coronavirus Tor2.
Where [2] appears, read: source organism: Vaccinia virus WR.
Where [3] appears, read: source organism: Mammarenavirus lassaense.
[4] abbreviates: source organism: Vaccinia virus Copenhagen.
[5] abbreviates: source organism: Mammarenavirus guanaritoense.
The mark [6] stands for this setting: source organism: Mammarenavirus juninense.

Consider RTTWAFCEV, for which the Kd (in general, the free concentration of one partner at which half of the binding sites on the other are occupied at equilibrium, for simple one-to-one binding) in the assay with HLA-A*02:06 (source organism: Dengue virus 4 Philippines/H241/1956) came to 0.0231 µM.

SICSTMTNR: the Kd turned out to be 0.00108 µM with HLA-A*31:01 (setting [1]); 0.0464 µM with HLA-A*68:01 (setting [1]); 0.013 µM with HLA-A*11:01 (setting [1]); 0.042 µM with HLA-A*33:01 (setting [1]); 0.864 µM with HLA-A*03:01 (setting [1]).

Consider SIPISELSR, for which the Kd was 3.72 µM in the assay with HLA-A*31:01 (setting [2]); 0.0112 µM with HLA-A*68:01 (setting [2]); 0.125 µM in the assay with HLA-A*11:01 (setting [2]); 9.74 µM in the assay with HLA-A*33:01 (setting [2]); no less than 24.6 µM with HLA-A*03:01 (setting [2]).

Consider SLFKNVRLLK, for which the Kd with HLA-A*31:01 (setting [2]) is 0.118 µM; with HLA-A*68:01 (setting [2]), 0.335 µM; with HLA-A*11:01 (setting [2]) it was 0.0132 µM; with HLA-A*33:01 (setting [2]), 2.21 µM; with HLA-A*03:01 (setting [2]), 0.00513 µM.

Turning to SLLKTHRMCK, the Kd is 0.452 µM with HLA-A*31:01 (setting [1]); no less than 23.3 µM in the assay with HLA-A*68:01 (setting [1]); 0.039 µM in the assay with HLA-A*11:01 (setting [1]); 6.92 µM with HLA-A*33:01 (setting [1]); 0.0134 µM with HLA-A*03:01 (setting [1]).

With STTDAEACY, the Kd with HLA-A*31:01 (setting [2]) is no less than 75.4 µM; in the assay with HLA-A*68:01 (setting [2]), 0.163 µM; with HLA-A*11:01 (setting [2]), 0.432 µM; with HLA-A*33:01 (setting [2]) it was 17.4 µM; with HLA-A*03:01 (setting [2]) it was no less than 47.8 µM.

Turning to SVSGDLILEI, in the assay with HLA-A*02:06 (source organism: Dengue virus 1 Brazil/97-11/1997), the Kd came to 0.0891 µM.

Turning to TAIKEVVMAY, the Kd with HLA-A*31:01 (setting [2]) is 4.28 µM; with HLA-A*68:01 (setting [2]), 0.317 µM; in the assay with HLA-A*11:01 (setting [2]) it was 1.11 µM; in the assay with HLA-A*33:01 (setting [2]) it was no less than 21.4 µM; with HLA-A*03:01 (setting [2]), 4.43 µM.

Consider TCQGSEDIK, for which the Kd with HLA-A*31:01 (setting [3]) is no less than 61.3 µM; in the assay with HLA-A*68:01 (setting [3]), no less than 30 µM; with HLA-A*11:01 (setting [3]), 15.1 µM; with HLA-A*33:01 (setting [3]), no less than 77.7 µM; with HLA-A*03:01 (setting [3]), no less than 78 µM.

Consider TLFIDRGSIK, for which the Kd in the assay with HLA-A*31:01 (setting [4]) worked out at 8.01 µM; with HLA-A*68:01 (setting [4]) it was 0.0409 µM; with HLA-A*11:01 (setting [4]), 0.0324 µM; with HLA-A*33:01 (setting [4]), 4.65 µM; with HLA-A*03:01 (setting [4]) it was 0.0124 µM.

As to TMRIYCSLFK, the Kd amounted to 0.00178 µM in the assay with HLA-A*31:01 (setting [2]); 0.0267 µM in the assay with HLA-A*68:01 (setting [2]); 0.00021 µM in the assay with HLA-A*11:01 (setting [2]); 0.0935 µM with HLA-A*33:01 (setting [2]); 0.00118 µM with HLA-A*03:01 (setting [2]).

In the case of TNFESFTVK, the equilibrium dissociation constant (Kd) in the assay with HLA-A*31:01 (setting [5]) is 0.27 µM; with HLA-A*68:01 (setting [5]), 0.0243 µM; with HLA-A*11:01 (setting [5]), 1.44 µM; with HLA-A*33:01 (setting [5]), no less than 77.7 µM; with HLA-A*03:01 (setting [5]), 0.365 µM.

Consider TQSRDLEDFK, for which the Kd in the assay with HLA-A*31:01 (setting [1]) was 14.6 µM; in the assay with HLA-A*68:01 (setting [1]) it was no less than 29 µM; with HLA-A*11:01 (setting [1]), 12.5 µM; in the assay with HLA-A*33:01 (setting [1]) it was no less than 70 µM; with HLA-A*03:01 (setting [1]) it was 19.3 µM.

As to TVFFTASLFL, the Kd in the assay with HLA-A*31:01 (setting [6]) was 7.22 µM; in the assay with HLA-A*68:01 (setting [6]), 0.901 µM; with HLA-A*11:01 (setting [6]) it was 0.482 µM; with HLA-A*33:01 (setting [6]) it was no less than 70 µM; with HLA-A*03:01 (setting [6]), 1.33 µM.

Consider VADLSARNK, for which the Kd with HLA-A*31:01 (setting [2]) stood at 3.03 µM; with HLA-A*68:01 (setting [2]), 1.12 µM; with HLA-A*11:01 (setting [2]), 0.153 µM; in the assay with HLA-A*33:01 (setting [2]) it was 11.7 µM; in the assay with HLA-A*03:01 (setting [2]), 0.214 µM.

On to VAFELWAKR, for which the Kd with HLA-A*31:01 (setting [1]) worked out at 0.0769 µM; with HLA-A*68:01 (setting [1]), 0.0234 µM; with HLA-A*11:01 (setting [1]), 3.27 µM; with HLA-A*33:01 (setting [1]) it was 0.052 µM; in the assay with HLA-A*03:01 (setting [1]) it was 9.44 µM.

In the case of VFKDSFLRK, the Kd amounted to 0.154 µM with HLA-A*31:01 (setting [2]); 0.776 µM in the assay with HLA-A*68:01 (setting [2]); 0.216 µM with HLA-A*11:01 (setting [2]); 1.88 µM in the assay with HLA-A*33:01 (setting [2]); 0.322 µM with HLA-A*03:01 (setting [2]).

For the sequence VIILAALFMY, the Kd with HLA-A*31:01 (setting [2]) is no less than 70 µM; in the assay with HLA-A*68:01 (setting [2]), no less than 51.8 µM; with HLA-A*11:01 (setting [2]), 0.449 µM; with HLA-A*33:01 (setting [2]), no less than 70 µM; with HLA-A*03:01 (setting [2]), 2.66 µM.

As to VILQNAWKV, the Kd with HLA-A*02:06 (source organism: Dengue virus 2 Jamaica/1409/1983) is 0.00445 µM.

On to VLDMCAALK, for which the Kd worked out at 2.35 µM with HLA-A*31:01 (setting [1]); 2.52 µM with HLA-A*68:01 (setting [1]); 0.0449 µM with HLA-A*11:01 (setting [1]); 13.6 µM in the assay with HLA-A*33:01 (setting [1]); 0.0176 µM in the assay with HLA-A*03:01 (setting [1]).

Turning to VLFVKKMLPK, the Kd with HLA-A*31:01 (setting [2]) stood at 1.73 µM; with HLA-A*68:01 (setting [2]) it was 2.35 µM; with HLA-A*11:01 (setting [2]), 0.012 µM; with HLA-A*33:01 (setting [2]), 13.5 µM; with HLA-A*03:01 (setting [2]), 0.00721 µM.

For WIKDIMTSTR, the Kd with HLA-A*31:01 (setting [2]) is 0.301 µM; with HLA-A*68:01 (setting [2]), 0.0227 µM; with HLA-A*11:01 (setting [2]) it was no less than 21.2 µM; with HLA-A*33:01 (setting [2]) it was 0.064 µM; with HLA-A*03:01 (setting [2]), 2.2 µM.

Take WVLAYMLFTK: the Kd turned out to be 1.26 µM with HLA-A*31:01 (setting [1]); 0.104 µM with HLA-A*68:01 (setting [1]); 0.0327 µM with HLA-A*11:01 (setting [1]); 3.95 µM with HLA-A*33:01 (setting [1]); 0.024 µM with HLA-A*03:01 (setting [1]).

On to YLSSRAKLA, for which, in the assay with HLA-A*02:03, the Kd was 0.036 µM.
